From patent US5731185

System: HphI restriction endonuclease (Haemophilus parahaemolyticus)
Test: cleavage_in_vitro
Conditions: crude extract cleaves lambda DNA; pAGR3-Rg1 clones in ER2252 about 750 units/g

lambda DNA
activity (units/g cells): 5000
